Experimental data as given in US8241627B2, “Modified polypeptides stabilized in a desired conformation and methods for producing same” (The Center for Blood Research, Inc., priority 2000, dated 2012).

Target: ICAM-1 (Homo sapiens, UniProt P05362)
Assay: Binding of LFA-1 or isolated I-domain transfectants to immobilized ICAM-1
Type: cell-based
Parameters: ICAM-1 was purified from human tonsil; from tissue; host or cells: human tonsil
Experimental: Clones of the transfectants that expressed similar levels of cell surface LFA-1, as determined by flow cytometry using monoclonal antibody TS2/4 (FIG. 3B), were tested for their ability to bind to immobilized ICAM-1, as previously described (Lu, C and Springer, T A (1997) J Immunol 159:268-278).
Briefly, ICAM-1 was purified from human tonsil, and coated to 96-well plates as described previously (Lu, C and Springer T A, (1997) J Immunol 159:268-278). Cells were labeled with a florescence dye 2′,7′-bis-(carboxyethyl)-5(and-6)-carboxyfluorescein, acetoxymethyl ester (BCECF-AM), and resuspended to 1×10^6/ml in L15/FBS. 50 μl cell suspension was mixed in ICAM-1 coated wells with an equal volume of L15/FBS in the absence or presence of monoclonal antibody (CBRLFA-1/2, 10 μg/ml). Monoclonal antibodies were used at final concentration of 1:20 hybridoma supernatant, 1:200 ascites, or μg/ml purified IgG. For testing the effect of divalent cations, BCECF-AM-labeled cells were washed 2× with TS buffer, pH7.5 (20 mM Tris, pH 7.5, 150 mMNaCl) containing 5 mM EDTA, followed by 2 washes with TS buffer, pH7.5. Cells were then resuspended to 5×10^5/ml in the TS buffer, pH7.5 supplemented with 1 mM MgCl2/CaCl2, MgCl2, MnCl2 mM EDTA, and 100 μl cell suspension was added to ICAM-1 coated wells. After incubation at 37° C. for 30 minutes, unbound cells were washed off on a Microplate Autowasher (Bio-Tek Instruments, Winooski, Vt.). The fluorescence content of total input cells and the bound cells in each well was quantitated on a Fluorescent Concentration Analyzer (IDEXX, Westbrook, Me.). The bound cells were expressed as a percentage of total input cells per sample well.
For generating stable K562 transfectants that express the I-domain on the surface, 20 μg of SspI-linearized pcDNA3.1/Hygro(+) containing the sequences encoding the I domain and the PDGFR transmembrane domain was used to transfect K562 cells by electroporation as described above. Transfectants were selected for resistance to 100 μg/ml hygromycin B, and were further subcloned by cell sorting and limiting dilution; clones that expressed similar levels of surface wild-type and mutant I domain-PDGFR were selected for functional studies. Stable cell lines were maintained in RPMI medium 1640 supplemented with 10% FBS and 100 μg/ml hygromycin B. Cell surface expression of the isolated I-domains was determined by flow cytometry using antibody TS1/22 to the I-domain (FIG. 7). Two clones from each transfectant were selected and tested for binding to immobilized ICAM-1, and similar results were obtained with each of the two clones (FIG. 8A).
If the constitutive ligand binding activity of mutant K287C/K294C is due to the formation of a disulfide bond between the introduced C287 and C294, disruption of the disulfide bond with a reducing agent would abolish ligand binding ability of the mutant. Accordingly, the transfectants were treated with the reducing agent DTT (10 mM) in L15/FBS containing Mg^2+ and Ca^2+, and the ability of transfectants to bind to ICAM-1 was assessed.
Furthermore, the effect of divalent cations on ligand binding of the isolated I-domains expressed on the surface of K562 transfectants was tested. The binding reactions were performed in HEPES/NaCl/glucose (20 mM HEPES, pH 7.5, 140 mM NaCl, 2 mg/ml glucose) supplemented with 1 mM […], 1 mM Mg^2+, or 1 mM EDTA.

Sequence of ICAM-1 (P05362 28-532): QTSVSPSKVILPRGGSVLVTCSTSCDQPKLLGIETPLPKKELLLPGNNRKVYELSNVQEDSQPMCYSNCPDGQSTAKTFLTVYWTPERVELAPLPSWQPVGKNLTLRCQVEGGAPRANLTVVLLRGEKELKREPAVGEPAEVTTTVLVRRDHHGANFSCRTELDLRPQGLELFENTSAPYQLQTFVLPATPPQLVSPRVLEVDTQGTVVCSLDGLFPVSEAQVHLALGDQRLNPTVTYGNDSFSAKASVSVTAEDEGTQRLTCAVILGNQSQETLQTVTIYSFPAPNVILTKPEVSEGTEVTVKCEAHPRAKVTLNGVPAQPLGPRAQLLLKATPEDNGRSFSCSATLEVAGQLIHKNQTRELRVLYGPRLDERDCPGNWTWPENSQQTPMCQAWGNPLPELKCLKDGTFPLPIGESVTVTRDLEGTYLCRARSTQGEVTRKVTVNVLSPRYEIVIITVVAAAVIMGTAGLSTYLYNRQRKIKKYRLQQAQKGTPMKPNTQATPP

binding of 293T transient transfectants to immobilized ICAM-1 (293T, no activating antibody): constitutively strong binding
binding of K562 cells expressing isolated I-domains to immobilized ICAM-1 (I-domain on cell surface via PDGFR transmembrane domain): strong binding
binding of isolated I-domain to ICAM-1 after EDTA treatment (K562, 1 mM EDTA): abolished
binding of K562 stable transfectants to immobilized ICAM-1 with activating mAb CBRLFA-1/2 (K562, CBRLFA-1/2 10 μg/ml): did not further enhance binding
binding of K562 transfectants to ICAM-1 in the presence of EDTA (K562, intact LFA-1, EDTA): abolished
binding of K562 stable transfectants to immobilized ICAM-1 (K562, no activating antibody): strongly bound
effect of DTT treatment on binding to ICAM-1 (K562 transfectants, DTT 10 mM in L15/FBS): abolished
B1: K287C/K294C: human αL (LFA-1) I-domain with K287 and K294 replaced by cysteines; high affinity locked open; tested in intact LFA-1, cell-surface and soluble forms (protein)
chain: GNVDLVFLFDGSMSLQPDEFQKILDFMKDVMKKLSNTSYQFAAVQFSTSYKTEFDFSDYVKRKDPDALLKHVKHMLLLTNTFGAINYVATEVFREELGARPDATKVLIIITDGEATDSGNIDAAKDIIRYIIGIGKHFQTKESQETLHKFASKPASEFVCILDTFECLKDLFTELQKKIY
notes: human αL (LFA-1) I-domain with K287 and K294 replaced by cysteines; tested in intact LFA-1, cell-surface and soluble forms
